Binding result and EC50 data for one molecule are collected here from US20240228604A1 (ALCHEMAB THERAPEUTICS, published 2024).

In experiment [1] the target is T1, Human recombinant UNC5D (BLI antigen) (Human, UniProt Q6UXZ4 33-379).
T1 construct: also called UNC5D ectodomain
The experiment can be described thus: BLI, antigen captured by His tag, antibody as analyte. An excerpt: (§1) Antigen was loaded as ligand and dipped into antibody as analyte during association, and assay buffer during dissociation.
(§2) Purified recombinant antigens were purchased from a commercial supplier or prepared and purified in-house and details are shown in Table 2.

Experiment [2] deals with T2, Human Neogenin (R&D Systems catalogue number 8607-NE; BLI antigen) (Human, UniProt Q92859 34-1105).
T2 construct: extracellular domain; Bought protein; also called neogenin-1 ectodomain; NEO1
T2 sequence (looked up): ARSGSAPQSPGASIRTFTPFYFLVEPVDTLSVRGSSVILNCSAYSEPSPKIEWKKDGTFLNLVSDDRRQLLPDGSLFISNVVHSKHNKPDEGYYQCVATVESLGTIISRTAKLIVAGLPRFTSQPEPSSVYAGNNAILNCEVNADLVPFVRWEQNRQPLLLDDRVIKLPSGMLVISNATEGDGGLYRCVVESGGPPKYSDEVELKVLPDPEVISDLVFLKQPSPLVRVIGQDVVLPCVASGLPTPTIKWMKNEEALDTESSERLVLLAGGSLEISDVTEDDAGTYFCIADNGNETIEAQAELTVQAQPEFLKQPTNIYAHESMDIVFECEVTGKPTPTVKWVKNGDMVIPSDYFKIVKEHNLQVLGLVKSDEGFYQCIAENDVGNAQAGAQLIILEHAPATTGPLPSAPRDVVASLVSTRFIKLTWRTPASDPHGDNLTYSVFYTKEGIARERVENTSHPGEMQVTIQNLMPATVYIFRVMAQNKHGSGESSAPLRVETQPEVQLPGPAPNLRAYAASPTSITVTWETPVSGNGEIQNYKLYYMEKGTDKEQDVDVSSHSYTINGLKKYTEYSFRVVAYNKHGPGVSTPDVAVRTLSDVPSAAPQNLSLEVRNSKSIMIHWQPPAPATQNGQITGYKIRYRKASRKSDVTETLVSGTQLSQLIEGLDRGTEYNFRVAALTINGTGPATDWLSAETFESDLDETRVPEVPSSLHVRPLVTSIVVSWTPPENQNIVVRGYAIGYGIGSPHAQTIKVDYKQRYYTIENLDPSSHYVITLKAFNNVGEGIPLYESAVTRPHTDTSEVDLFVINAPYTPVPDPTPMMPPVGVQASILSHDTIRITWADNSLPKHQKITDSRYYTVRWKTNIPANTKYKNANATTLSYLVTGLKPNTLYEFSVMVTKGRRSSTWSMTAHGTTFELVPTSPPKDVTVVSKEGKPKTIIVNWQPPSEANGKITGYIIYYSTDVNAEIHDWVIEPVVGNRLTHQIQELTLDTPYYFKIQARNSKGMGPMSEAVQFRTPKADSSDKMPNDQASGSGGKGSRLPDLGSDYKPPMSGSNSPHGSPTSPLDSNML
Described as above.
From the text: as §1, §2

For experiment [3], the target named is T3, Human recombinant DCC (BLI antigen) (Human, UniProt P43146 26-1097).
T3 construct: also called Netrin receptor DCC ectodomain
Described as above.
From the text: as §1, §2

Experiment [4] has as its target T4, Human recombinant UNC5A (BLI antigen) (Human, UniProt Q6ZN44 26-306).
T4 construct: Captured by His tag; also called UNC5A ectodomain
The experiment is described as above.
From the text: as §1, §2

The target of experiment [5] is T5, UNC5C recombinant human antigen, Fc-tagged (R&D Systems, #1005-UN) (human, UniProt O95185 41-380, limits assumed).
T5 construct: Bought protein; also called rhUNC5C; not shown: Fc tag of the bought protein
Put plainly: ELISA, antigen down. On the technique in general: ELISA stands for enzyme-linked immunosorbent assay.

Experiment [6] deals with T6, full-length human NEO1 on fixed HEK293 cells (Retrogenix panel) (human, UniProt Q92859 34-1461).
T6 construct: whole, on cells; also called neogenin
T6 sequence (looked up): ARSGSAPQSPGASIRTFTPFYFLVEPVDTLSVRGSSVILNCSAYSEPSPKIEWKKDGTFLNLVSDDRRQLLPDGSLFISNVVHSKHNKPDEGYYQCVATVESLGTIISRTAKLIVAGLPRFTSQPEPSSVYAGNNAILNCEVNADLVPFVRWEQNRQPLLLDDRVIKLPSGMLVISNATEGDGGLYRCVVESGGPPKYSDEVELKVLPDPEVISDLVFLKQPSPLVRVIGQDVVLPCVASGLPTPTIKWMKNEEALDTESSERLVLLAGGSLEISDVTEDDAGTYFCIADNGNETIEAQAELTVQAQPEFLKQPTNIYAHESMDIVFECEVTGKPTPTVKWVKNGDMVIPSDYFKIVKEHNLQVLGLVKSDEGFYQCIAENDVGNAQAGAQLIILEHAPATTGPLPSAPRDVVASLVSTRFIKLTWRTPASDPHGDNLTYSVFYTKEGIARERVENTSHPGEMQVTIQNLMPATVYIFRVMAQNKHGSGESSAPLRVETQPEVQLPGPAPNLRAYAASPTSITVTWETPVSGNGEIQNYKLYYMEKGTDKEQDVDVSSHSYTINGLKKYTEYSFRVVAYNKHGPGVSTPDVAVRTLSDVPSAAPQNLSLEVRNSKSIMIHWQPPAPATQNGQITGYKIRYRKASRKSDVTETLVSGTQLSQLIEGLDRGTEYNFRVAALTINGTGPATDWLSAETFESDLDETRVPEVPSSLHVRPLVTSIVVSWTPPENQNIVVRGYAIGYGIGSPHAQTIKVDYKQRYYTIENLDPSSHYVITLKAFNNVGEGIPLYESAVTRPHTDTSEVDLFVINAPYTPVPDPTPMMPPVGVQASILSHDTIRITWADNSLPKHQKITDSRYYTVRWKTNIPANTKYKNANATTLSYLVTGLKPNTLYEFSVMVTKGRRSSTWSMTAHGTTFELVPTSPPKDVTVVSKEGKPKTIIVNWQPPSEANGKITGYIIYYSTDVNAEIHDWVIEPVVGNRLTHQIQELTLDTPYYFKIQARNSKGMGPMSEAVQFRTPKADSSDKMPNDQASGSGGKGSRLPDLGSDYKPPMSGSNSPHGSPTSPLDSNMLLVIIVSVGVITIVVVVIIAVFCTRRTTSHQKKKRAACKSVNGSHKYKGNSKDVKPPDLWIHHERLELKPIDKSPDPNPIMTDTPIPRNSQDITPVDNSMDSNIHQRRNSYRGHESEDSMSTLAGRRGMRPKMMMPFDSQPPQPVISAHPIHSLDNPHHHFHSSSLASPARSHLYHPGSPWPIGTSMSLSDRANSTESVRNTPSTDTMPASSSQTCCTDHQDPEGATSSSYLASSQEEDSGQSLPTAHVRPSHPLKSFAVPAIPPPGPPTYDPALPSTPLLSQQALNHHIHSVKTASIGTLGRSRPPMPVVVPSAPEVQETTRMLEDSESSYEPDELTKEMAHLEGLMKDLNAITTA
Put plainly: Retrogenix cell microarray, fixed HEK293 cells.

Usually EC50 stands for the concentration that produces a half-maximal response.

T4 sequence (Q6ZN44 other isoform, or with tags, fused parts or gaps): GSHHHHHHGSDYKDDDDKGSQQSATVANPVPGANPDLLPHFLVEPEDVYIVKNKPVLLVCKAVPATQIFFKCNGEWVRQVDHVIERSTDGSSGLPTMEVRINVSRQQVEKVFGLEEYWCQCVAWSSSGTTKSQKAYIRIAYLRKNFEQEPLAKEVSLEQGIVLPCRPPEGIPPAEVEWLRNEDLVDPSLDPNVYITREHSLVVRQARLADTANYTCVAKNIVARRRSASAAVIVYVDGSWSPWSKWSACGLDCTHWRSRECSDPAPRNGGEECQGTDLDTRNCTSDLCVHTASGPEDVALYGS
T5 sequence (O95185 41-380 limits assumed): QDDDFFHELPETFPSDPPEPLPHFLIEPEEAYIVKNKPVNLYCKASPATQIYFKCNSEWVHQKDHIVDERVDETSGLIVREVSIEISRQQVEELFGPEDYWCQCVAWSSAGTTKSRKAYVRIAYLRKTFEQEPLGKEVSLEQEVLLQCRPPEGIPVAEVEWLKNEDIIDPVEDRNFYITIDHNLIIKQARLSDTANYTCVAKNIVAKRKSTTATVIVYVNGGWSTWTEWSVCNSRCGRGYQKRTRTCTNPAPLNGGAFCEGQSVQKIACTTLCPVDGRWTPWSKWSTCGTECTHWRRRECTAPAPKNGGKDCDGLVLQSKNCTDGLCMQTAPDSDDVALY
T3 sequence (P43146 other isoform, or with tags, fused parts or gaps): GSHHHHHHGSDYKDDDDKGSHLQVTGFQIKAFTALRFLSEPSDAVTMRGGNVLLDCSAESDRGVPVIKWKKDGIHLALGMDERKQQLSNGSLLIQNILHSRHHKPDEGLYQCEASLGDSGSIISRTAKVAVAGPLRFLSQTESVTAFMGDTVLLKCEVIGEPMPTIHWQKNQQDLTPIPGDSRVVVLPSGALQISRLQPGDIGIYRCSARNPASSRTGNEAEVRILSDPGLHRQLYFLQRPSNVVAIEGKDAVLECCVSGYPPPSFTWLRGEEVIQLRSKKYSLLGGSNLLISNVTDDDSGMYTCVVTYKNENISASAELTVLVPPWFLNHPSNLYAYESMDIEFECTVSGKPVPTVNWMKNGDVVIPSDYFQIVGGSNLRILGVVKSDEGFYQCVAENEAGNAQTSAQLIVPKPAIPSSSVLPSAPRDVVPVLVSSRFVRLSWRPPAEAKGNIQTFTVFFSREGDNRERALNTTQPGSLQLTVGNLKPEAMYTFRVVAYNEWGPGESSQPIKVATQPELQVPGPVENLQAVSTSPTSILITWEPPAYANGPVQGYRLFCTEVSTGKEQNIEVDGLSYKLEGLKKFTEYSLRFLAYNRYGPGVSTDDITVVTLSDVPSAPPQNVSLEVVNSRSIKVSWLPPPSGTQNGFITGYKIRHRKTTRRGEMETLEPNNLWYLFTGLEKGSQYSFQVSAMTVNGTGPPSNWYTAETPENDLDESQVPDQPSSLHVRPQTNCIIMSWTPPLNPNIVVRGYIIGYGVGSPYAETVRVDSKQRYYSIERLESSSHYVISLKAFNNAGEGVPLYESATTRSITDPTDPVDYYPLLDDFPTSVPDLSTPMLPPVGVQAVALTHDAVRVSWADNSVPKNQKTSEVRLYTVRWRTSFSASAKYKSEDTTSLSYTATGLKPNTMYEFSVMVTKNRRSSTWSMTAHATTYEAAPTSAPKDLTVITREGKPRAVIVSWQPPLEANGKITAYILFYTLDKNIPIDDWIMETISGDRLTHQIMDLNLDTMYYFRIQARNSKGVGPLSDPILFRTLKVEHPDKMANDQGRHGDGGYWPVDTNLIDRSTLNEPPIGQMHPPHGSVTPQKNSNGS
T1 sequence (Q6UXZ4 other isoform, or with tags, fused parts or gaps): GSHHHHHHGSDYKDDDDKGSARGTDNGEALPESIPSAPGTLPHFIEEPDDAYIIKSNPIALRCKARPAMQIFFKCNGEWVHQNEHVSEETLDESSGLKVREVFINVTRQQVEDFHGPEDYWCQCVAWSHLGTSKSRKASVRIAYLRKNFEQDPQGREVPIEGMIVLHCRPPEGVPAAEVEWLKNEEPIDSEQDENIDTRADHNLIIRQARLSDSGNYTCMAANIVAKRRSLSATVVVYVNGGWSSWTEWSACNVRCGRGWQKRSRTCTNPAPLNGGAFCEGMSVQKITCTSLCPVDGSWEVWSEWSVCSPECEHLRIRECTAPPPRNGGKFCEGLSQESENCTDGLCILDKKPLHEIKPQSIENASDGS

B1: ATL_0006178 (antibody, IgG1, V domains shown)
VH: QVQLQESGPGLVKPSETLSLTCTVSGGSISSYFWSWIRQPPGKGLEWIGYIHYSGTTNQNPSLKSRVTISVDKSKNQFSLKLSSVTAADTAVYYCARGRGMATLPFDYWGQGTLVTVSS
VL: not shown
notes: Combination variant of ATL_5262 (T82K, Q67 kept, N58Y); also called ATL_6178; ATL6178
Turning to B1, the binding result was “no binding (tested: up to 100 nM)” in experiment [1]; “no binding (tested: up to 100 nM)” in experiment [2]; “no binding (tested: up to 100 nM)” in experiment [3]; “no binding (tested: up to 100 nM)” in experiment [4]; “no binding” in experiment [6]. Further, the EC50 in experiment [5] came out at 8 nM.
